Experimental data: patent US20260176358A1

Key:
PACAP38 [1] = molecular target: PACAP38 (UniProt P18509); assay: competition ELISA, biotinylated PACAP38 to coated PAC1-Fc
PACAP38 [2] = molecular target: PACAP38 (UniProt P18509); assay: competition ELISA, biotinylated PACAP38 to coated VPAC2-Fc
PACAP38 [3] = molecular target: PACAP38 (UniProt P18509); assay: competition ELISA, biotinylated PACAP38 to coated VPAC1-Fc
PACAP27 = PACAP27 (UniProt P18509); assay: ELISA, biotinylated peptide on streptavidin plate
Chain of PACAP27 (P18509 132-158 limits assumed): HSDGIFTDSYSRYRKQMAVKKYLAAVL

VIP = VIP (UniProt P01282); assay: ELISA, biotinylated peptide on streptavidin plate
Chain of VIP (P01282 125-152 limits assumed): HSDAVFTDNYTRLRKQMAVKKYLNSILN

PACAP38 [4] = molecular target: PACAP38 (UniProt P18509); assay: ELISA, biotinylated peptide on streptavidin plate
CGRP = assay: cell-based or functional assay

Chain of PACAP38 (P18509 132-169 limits assumed): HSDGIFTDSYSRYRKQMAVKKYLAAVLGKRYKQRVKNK

Substance | IC50 (PACAP38 [1]) [nM] | IC50 (PACAP38 [2]) [nM] | IC50 (PACAP38 [3]) [nM] | EC50 (PACAP27) [nM] | EC50 (VIP) [nM] | EC50 (PACAP38 [4]) [nM] | IC50, inhibition of cAMP production in SK-N-MC cells (CGRP) [nM]
LY-3451838 (antibody) | 6.46 | 1.42 | 1.34 | 0.11 | 9.58 | 0.06 | 
ALD-1910 (antibody) | 4.89 | 1.58 | 0.65 | 0.15 | 1.02 | 0.07 | 
Fremanezumab (antibody) |  |  |  |  |  |  | 40
